{"source": "patent US20240053350A1", "biological_target": "immobilized peptides having F NTAA residue (F-P2 peptides of the 484-peptide P1-P2 array)", "experiment": "cell-based or functional assay", "data": [{"binder": "TdT-F4R10 conjugate (designed binder) GSSHHHHHHGGSSDSPVDLKPKPKVKPKLERPKLYKVMLLNDNSTPGEFVTVVLKAVFRMSEDTGRRVMMTAHRFGSAVVVVSERDIAETKAKEATDLGKEAGFPLMFTTEPEEGAPSGAPSGAPSGAPSGAPSGAPSSPSPVPGSQNVPAPAVKKISQYACQRRTTLNNYNQLFTDALDILAENDELRENEGSCLAFMRASSVLKSLPFPITSMKDTEGIPCLGDKVKSIIEGIIEDGESSEAKAVLNDERYKSFKLFTSVFGVGLKTAEKWFRMGFRTLSKIQSDKSLRFTQMQKAGFLYYEDLVSCVNRPEAEAVSMLVKEAVVTFLPDALVTMTGGFRRGKMTGHDVDFLITSPEATEDEEQQLLHKVTDFWKQQGLLLYCDILESTFEKFKQPSRKVDALDHFQKCFLILKLDHGRVHSEKSGQQEGKGWKAIRVDLVMCPYDRRAFALLGWTGSRQFERDLRRYATHERKMMLDNHALYDRTKRVFLEAESEEEIFAHLGLDYIEPWERNA", "values": [{"measurement": "nucleotides inserted into the recording tag per encoding cycle (nt per encoding cycle)", "value": "5 to 8"}]}]}
